Experimental data reported in patent publication US12366576B2, “Compositions, assays, and methods for direct modulation of fatty acid metabolism” (Dana-Farber Cancer Institute, Inc., priority 2016, dated 2025).
Bridge positions count the residues as written; N and C are the ends. Square brackets hold non-standard residues; d marks the D form. Ends that are not written are not given here. Peptide text beside a SMILES is read from it. S5 = C=CCCC[C@](C)(N)C(=O)O

Target: T1, native VLCAD (Mus musculus, UniProt P50544)
T1 construct: As for native VLCAD from MEF lysates; endogenous in cells; host or cells: SV-40-transformed wild-type mouse embryonic fibroblasts (lysate)
T1 sequence (P50544 42-656): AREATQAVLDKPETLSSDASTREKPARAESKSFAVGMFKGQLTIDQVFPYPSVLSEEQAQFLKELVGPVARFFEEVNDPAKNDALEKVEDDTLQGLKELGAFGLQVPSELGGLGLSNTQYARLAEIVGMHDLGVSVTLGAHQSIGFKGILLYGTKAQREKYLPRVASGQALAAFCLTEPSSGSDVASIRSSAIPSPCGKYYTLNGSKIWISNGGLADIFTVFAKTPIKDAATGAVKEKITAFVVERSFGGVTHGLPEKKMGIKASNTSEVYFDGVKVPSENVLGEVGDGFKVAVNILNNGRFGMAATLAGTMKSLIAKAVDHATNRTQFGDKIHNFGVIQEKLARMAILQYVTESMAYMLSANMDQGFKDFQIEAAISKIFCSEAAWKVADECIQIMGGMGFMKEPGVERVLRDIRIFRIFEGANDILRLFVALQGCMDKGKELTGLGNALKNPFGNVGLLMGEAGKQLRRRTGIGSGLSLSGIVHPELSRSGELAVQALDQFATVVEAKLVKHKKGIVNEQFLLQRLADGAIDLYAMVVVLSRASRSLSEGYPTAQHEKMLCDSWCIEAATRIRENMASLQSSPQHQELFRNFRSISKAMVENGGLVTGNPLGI
Assay: Biotinylated SAHB pulldown from MEF lysates, anti-VLCAD Western analysis
Format: binding
Details: for best overall binders to VLCAD based on pull-downs and ITC: summary of binding properties; for summary of binding properties: binding to VLCAD: pull-downs and ITC
From the text: To validate the MS result, the pulldowns were repeated and eluates run on a gel for anti-VLCAD Western blot analysis. […] All peptides faithfully recapitulated native BH3-binding propensities for endogenous MCL-1 protein (FIG. 8). The eluates were then probed for the other members of the acyl-CoA dehydrogenase family that manifest shorter fatty acid substrate specificities. MCL-1 SAHBD was able to pull down VLCAD, but not MCAD or SCAD (FIG. 9). Because the traditional MCL-1 staple location differs from that of the BIM, BID, and BAD SAHBs, it was important to confirm that the observed VLCAD binding specificity was due to BH3 sequence selectivity, not staple position. A BIM SAHB with the traditional MCL-1 staple (BIM SAHBF), and a MCL-1 stapled peptide with the traditional BIM staple (MCL-1 SAHBA), were generated. […] To confirm that the selective interaction between MCL-1 SAHBD and VLCAD is direct, recombinant VLCAD was generated and purified by size exclusion chromatography (FIGS. 11 and 12).
The binding determinants for the MCL-1 BH3/VLCAD interaction were investigated by generating a series of biotinylated MCL-1 SAHBD alanine point mutants (FIG. 18A) and performing streptavidin pull-downs from MEF lysates, followed by VLCAD and MCL-1 western analysis of the resulting eluates. […] Native alanines and residues not mutated are colored white. The dotted semicircles highlight the distinctive MCL-1 BH3 binding interfaces for VLCAD versus MCL-1 engagement, as defined by the differential sensitivities to alanine mutagenesis.
Wild-type MEFs were trypsinized, washed once with cold PBS, and lysed on ice with NP-40 lysis buffer (50 mM Tris, pH 7.4, 150 mM NaCl, 0.5% (v/v) NP-40, complete protease inhibitor pellet (Roche)) using 1 ml of lysis buffer for every 10 million cells lysed. Cellular debris was pelleted at 14,000 g for 10 min at 4° C., and the supernatant was quantified using the BCA Protein Assay Kit (Thermo Fisher Scientific). 2 mg of lysate per pulldown were then exposed to 50 μL of pre-equilibrated High Capacity Streptavidin Agarose beads (Thermo Fisher Scientific). The pre-cleared lysates were then incubated with 15 nmol biotinylated SAHBs (or vehicle, 1.5% (v/v) DMSO) overnight at 4° C., followed by addition of 50 μL of pre-equilibrated High Capacity Streptavidin Agarose beads for 2 hours at 4° C. The beads were then pelleted and washed with NP-40 lysis buffer three times before eluting the protein sample from the beads by heating at 70° C. for 10 min in SDS loading buffer. Samples were then subjected to electrophoresis and either Western analysis or Coomassie stain (SimplyBlue Safe Stain, Thermo Fisher Scientific). The antibodies used for Western analysis were the following: MCL-1 (Rockland 600-401-394; 1:1000 in 3% BSA), VLCAD (Thermo Fisher Scientific PA5-29959; 1:1000 in 1% milk+0.1% Tween-20), MCAD (Thermo Fisher Scientific PA5-27201; 1:1000 in 3% BSA), and SCAD (Abcam ab154823; 1:1000 in 3% BSA). Coomassie stained gels were then processed for proteomics analysis (see below). Biotinylated SAHB pulldowns of recombinant protein were performed as above incubating 5 nmol of SAHB with 10 pmol of rVLCAD in 500 μL total volume. Densitometry analyses were performed using ImageJ software.

With `CC(=O)N[C@@H](CCCNC(=N)N)C(=O)N[C@@H](CCCCN)C(=O)N[C@@H](C)C(=O)N[C@@H](CC(C)C)C(=O)N[C@@H](CCC(=O)O)C(=O)N[C@H](C(=O)N[C@@H](CC(C)C)C(=O)N[C@@H](CCCNC(=N)N)C(=O)N[C@@H](CCCNC(=N)N)C(=O)N[C@H](C(=O)NCC(=O)N[C@@H](CC(=O)O)C(=O)NCC(=O)N[C@@H](C)C(=O)N[C@@]1(C)CCCC=CCCC[C@@](C)(C(=O)N[C@H](C(=O)N[C@@H](C)C(=O)N[C@@H](Cc2ccccc2)C(N)=O)[C@@H](C)O)NC(=O)[C@H](Cc2c[nH]cn2)NC(=O)[C@H](CC(N)=O)NC(=O)[C@H](CCCNC(=N)N)NC1=O)C(C)C)[C@@H](C)O` [V220A] (Ac-RKALETLRRVGDGA[S5]RNH[S5]TAF-NH2; staple 15-19; N-terminus and C-terminus assumed) the “best overall binders to VLCAD based on pull-downs and ITC” value was “Best overall binders to VLCAD” and the “summary of binding properties: binding to VLCAD” value (“summary of binding properties” below) was “Binds”.
“D218A: biotinylated MCL-1 SAHBD alanine point mutant D218A (RKALETLRRVGAGV[S5]RNH[S5]TAF; staple 15-19; also: biotinylated, place not given here)” was tested, and the “best overall binders to VLCAD based on pull-downs and ITC” value was “Best overall binders to VLCAD” and the “summary of binding properties” value was “Binds”.
With “F228A: biotinylated MCL-1 SAHBD alanine point mutant F228A (RKALETLRRVGDGV[S5]RNH[S5]TAA; staple 15-19; also: biotinylated, place not given here)” the “summary of binding properties” value was “Does not bind”.
For “L213A: biotinylated MCL-1 SAHBD alanine point mutant L213A (RKALETARRVGDGV[S5]RNH[S5]TAF; staple 15-19; also: biotinylated, place not given here)”, the “effect of alanine mutation on biotinylated MCL-1 SAHBD interaction with VLCAD” value (pull-downs from MEF lysates) was “disrupted” and the “summary of binding properties” value was “Does not bind”.
“MCL-1 SAHBD: hydrocarbon-stapled peptide mimicking the MCL-1 BH3 domain (Stabilized Alpha-Helix of BCL-2 Domain), SEQ ID NO:19 (RKALETLRRVGDGV[S5]RNH[S5]TAF; staple 15-19)” was tested, and the “summary of binding properties” value was “Binds” and the “pull down of VLCAD from cellular lysates” value (wild-type MEF lysates, 15 nmol biotinylated SAHB) was “VLCAD was detected”.
With “R207A: biotinylated MCL-1 SAHBD alanine point mutant R207A (AKALETLRRVGDGV[S5]RNH[S5]TAF; staple 15-19; also: biotinylated, place not given here)” the “summary of binding properties” value was “Does not bind”.
For “R214A: biotinylated MCL-1 SAHBD alanine point mutant R214A (RKALETLARVGDGV[S5]RNH[S5]TAF; staple 15-19; also: biotinylated, place not given here)”, the “summary of binding properties” value was “Does not bind”.
In the case of “R215A: biotinylated MCL-1 SAHBD alanine point mutant R215A (RKALETLRAVGDGV[S5]RNH[S5]TAF; staple 15-19; also: biotinylated, place not given here)”, the “summary of binding properties” value is reported as “weakly or not”.
